Test system: K4 kissing-loop RNA reporter
Assay: apparent KD of K4 kissing-loop reporter; higher = weaker reporter binding
Conditions: Eterna round: R107; input ligand: theophylline 20 uM
Method: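 RNA-MaP round R107: designed RNA switches with theophylline, tryptophan, arginine or FMN aptamers are transcribed on-chip within common flanks. They are titrated with a labelled K4 kissing-loop RNA reporter in RNA-MaP buffer (100 mM Tris pH 7.5, 80 mM KCl, 4 mM MgCl2), without ligand or with the indicated ligand. Median apparent KD per design.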
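Note: bound reporter read as fluorescence of individual clusters on recovered sequencing chips by microscopy, with normalized cluster intensities fitted with a binding model.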

Sequence	apparent KD of K4 kissing-loop reporter [µM]
UGACAUUGCUCAGAUACCAGACUUGAGGAUCACCCAGGUGCCAAACGUACAAUAAUAAAAGUCCCUUGGCAGCUGAGCAAUGUCU [TheoBX 14]	0.0699
UAUAUAGUGACGGCCGCCACUAUAUUAAUGUUUUUGUUAGAGUGAUGUUUUGUUUUAUAUUUUUAUAGGACCGGGUUAUAUGUUA [klppxmullin]	0.48
GAUGGCAUGCGAGGAUAUUGUACGGAGUGAUGUUCCCAUUAUCCAGGUAUUCGAUUGACGAGUAUCCAAGAAGGCGCAUGCCAUC	0.115
AAAGUUGAAAGUGAUACCAGACGAGUGAAGGGAAGAAAUUAAUUUGGAGUGAUGUUCCGCGUCCCUUGGCAGCACUUUGUAAUUU [Exclusion Theophylline B GF 23]	0.174
ACGAAGGAUGGAAGGAGCGCUCGUCAGUCCUGCGAGUGAUGUUCGUGGGUAAAUAGUCGCGAGCAGGUAGGUCGCCAUCUUGAGC [Isarteza]	0.112
AUAUAGUGAUGUUAUAUAAUAAUCUCUGAUACCAGUCAUUUAGAAGACCCUUGGCAGCAGCUAUAUAUAGGGAAACAAUACAUAA [AstrosExytheA#1]	0.925
GCUAUGGUUGGAAGGAGCGUUGGGUUACUAAUAAGAGUGAUGUUCGAUAGUAGGUAAUUGUAGCAGGUAGGUCGCCAACUAUAGC [KL-Arg B26]	0.234
UGAUACCAGACGGCCGCCACUGCACCAGUCAAUGACUGAGUGUAGUAUUGCUCAGUGAUGUUGAGUAGGACCGGGUCUGGUAUCU [Mod of Eli's TrypBX 8]	0.128
CAUAGGAAACUAUGUAUCUCUCUUACUGAAGGAGCGCGUGAAAACGCAGGUAGGUCGCAGAAUUUAAUAGAGAGUGAUGUUCUCA [Ex Arginine A K4 6]	0.513
UGCGUCGGUUCAGAUACCAGCCAAUUAGAGUCGAGUGAUGUUCGACAUUGAACGUCCAAAGGCCCUUGGCAGCUGGAUUGAGGAU [Same State Theophylline B GF 21]	0.189
UUAAGGGUCCGAGGAUAUCUCCCAGUGAUGUUGGGCGAUACGGCCCUUAAGACGAAUGGUUGAAGGAGAGAAGGCGGCUCCCGAU [Onatbi]	0.126

Same assay, conditions: Eterna round: R107; input ligand: tryptophan 2.4 mM

Sequence	apparent KD of K4 kissing-loop reporter [µM]
CAUACGCAUGGAGGAUAUGAGAUUUCUCAUAUUAUUGUUUAUUCUCAGUGAUGUUGGGAUUUAAACUCAGAAGGCCAUGUGUAUG [Ex FMN B 9]	0.132
CCUGAGUGAUGUUUAGGAGGCCCGAUAGAUACCAGAAAUACUGCGUUCCCUUGGCAGCUACGCGGACGGAAGACUACGUUACACG [theeternabot_exclusion_KL_Theo_A_16]	0.325
CCAGGUGGAAAAGGAUAUCUAGGAGUGAUGUUCCAUAUGAAAUUAGUUUAUCACCAAACGUCGACCAGAGAAGGUUUCCCAAUUU [theeternabot_exclusion_KL_FMN_B_31]	0.254
AAAAUAAUCCAGUGAUGUUGGUAUCCAGAUACCAGCGACGAAAGUCGCCCUUGGCAGCUGUGGACGUACAAAAUAAGUACGUCCU [#OpenEnded 9 #StaticStem #K4Early]	0.63
GGCGCUGCCUGUGCCGCCCUCCUCGUCCCUCGAGGACCGGUACGGCCGCCACUCGAGUGAUGUUCGGGUAGCCCUCCCUGCCAGC [BDazzled - #23 Exc. Tryptophan A]	0.34
GCUAUGGUAGGAAGGAGCGCUUAUUUAUUAAUAAGAGUGAUGUUCGAUAAUAGAUAUUUAUAGCAGGUAGGUCGCCUACUAUAGC [Arginine B K4 11]	0.165
AGUAGUUGGGCGGCCGCCACUAGAACAGCUUUGCCAAAGGCAGAGCUCUAGAGUGAUGUUCUGGCUAGGACCGGGUCCAACUACA [#01 K4 Tryptophan B Same State]	0.417
GUGCAGUGAUGUUGCACGAGGAAAGACGAUACCAGCCGUAAAUAAGGCCCUUGGCAGCGUAGGCCAGCAUAAAGUAUGCUAGUCU [Oresbelaen]	0.099
AAAUUUAAUAUAUUUAAAUAAAUAUGUGAUACCAGACAUUUAUAAGUCCCUUGGCAGCACAUUGCAGUGAUGUUGCUUAUAAUAA [JR_SSTheophyA_Sub016]	0.0765
GGGUUCUCGUCGGCCGCCACUUCAUGUAUUUAGCAGGCUUCGCUCAGACUCAGUGAUGUUGGGUAAAGGACCGGGACACAUUCAA [theeternabot_exclusion_KL_Trp_B_50]	0.31
AAAUUUGCCACUGAUACCAGCCAGUGAUGUUGGCGGUAGUUCUAUGGUACCAUACAUUGUGGCCCUUGGCAGCAGGGCACAGAGC [Raxeisra]	0.113
AUUUAAUGUAUAGAUUAUAUACAUUAUUCAGAGGAUAUGCAUUGAAGCAGAAGGCUGGAUGUAGUGAUGUUGCAAUUUUAAUUUA [JR_SSFMNA_Sub007]	0.143
CGAUACGGAAAUACGUGUCUCUAUUCAGAAGGAGCGUGUUUGUACACAGGUAGGUCGCUGAAAUUUAAACUAGUGAUGUUAGACU [JR_SSArginiA_Sub003]	0.929
CCAUCGCUAUUCGAUACCAGUCAAUAGGUCUUUGGCCUAUUAAUGGAGUGAUGUUCCUUAGACCCUUGGCAGCGAAUAGUGAUGG [Theophylline B K4 12]	0.241
GCAUCCAUGGCAGGAUAUAGCUGAGUGAUGUUCAGGACCCAGUCAGUAUCCAUUACUACUGGACUUCUAGAAGGGCCAUGGAUGC	0.246
AUGUCUGAUAGCAGUGAUGUUGCUUCGGAUACCAGACGCGAUCAUGUCCCUUGGCAGCUGACACGGCACGUGCUAGGUUAGAUGG [whbob_Ex_Theo_A_th74]	0.0959
UUAGAUGAUUCAUCAAGAUUGAUGAGCAAACGAGGACCGGUACGGCCGCCACUCGAGUGAUGUUCGAGAAGCUCAUCAAUCAAUU [AK4.2 EXC Tryptophan A]	0.37
AUUCAUUUCAGAGGAUAUCGAAGGAGAGUGAUGUUCUCCCAUAGCCCAGUGAUGUUGGAAGCUAUUCGAGAAGGCUGUGGGUGGA [Same State FMN B GF 26]	0.216
UUAUAUUUUAUAUUUAGUAGAGCUCUCACUCGAGGACCGGUACGGCCGCCACUCGAGUGAUGUUCGAGUGGGAGAGCUCUACAUU [AK3.2 EXC Tryptophan A]	0.315
CCAUCGCUAUUCGAUACCAGUCAUUUUUUAUUUUAUUUUUUUUUUGGAGUGAUGUUCCAAGACCCUUGGCAGCGGAUAGUGAUGG [whbob_SS_Theo_B_th79]	0.109
GUAUCGCUAGGAGGAUAUUCCAAUCCGCCUAUAAUAGGUGGUACGGAGUGAUGUUCCGAUUUACGGGAAGAAGGCCUAGUGAUAC [FMN B 17]	0.346
CCUUCUCUUGAUAGUGAUGUUAUCAAGGACAAGGAUAUCAUCUCAAUGAGAAGGUGUCCUUGAUAACAUGGAGGUCUGAAACAGA [Omei KL FMN A Exc C v3]	0.385

Sequence	apparent KD of K4 kissing-loop reporter [µM]
AGACUACCACACUGUCAAUAGACAGUGAACUAGGAUAUGCUGAUAAGCAGAAGGAGUGAUGUUCCUGGGUAGUCAAUAAAAUAAU [FmnAX 13 G67]	0.364
CACGAUGAAUUCUCUAGGAGUGAUGUUUUUCGAGGACCGGUACGGCCGCCACUCGGACGACGAGCGUGGUAGCGGGCUGAAGACU [iuullin]	0.771
ACGUGCACCAGUGAUGUUGGAAAAUAUGAAGGAGCGGGCGAAAGCCCAGGUAGGUCGCAUAAUAGCACGAGCCACGAAAGUGGCA [#SwitchBubble 20 #K4Early]	0.126
CGUGGUGCCAAAGGAUAUCAUGCUAACGCGGUUGAGUGAUGUUCGACCCGAGAUAAGAGUGGGCAUUGAGAAGGUUGCGCAGAAG [theeternabot_sameState_KL_FMN_B_10]	0.145
UUGGAAAGACCAGAACAGGGCCUUAUCUGGGAGGAUAUGCUGGAGGGCAGAAGGCCCAGUGAUGUUGGGCCUUGUGCUCGUUCUA [Ainanti]	0.145
AAUGCAUUGUGAAGGAGCGCGAUAGGCAGUGAUGUUGCUUACAUUUUAUUAUGUUUUAAAACGCAGGUAGGUCGCACUUUGCAUA [JR_Nu_SSArginiB_Sub030]	0.162
AAUGCAUAGUGAAGGAGCGCGAUAAGCAGUGAUGUUGCUUAGUUAUAAGUGUUUAUUUAUUCGCAGGUAGGUCGCACUUUGCAUA [JR_ExcArginiB_Sub019]	0.132
CUUAUUAUGUCGGCCGCCACUCAAUGAUAAUCCACUAAAUUGCGAUUCAGUGAUGUUGAAGUGCUGAGGACCGGGACUAUUAACA [theeternabot_sameState_KL_Trp_B_22]	0.316
AUGUCUGAUAGCAGUGAUGUUGCUUCGGAUACCAGACGAGAUCAUGUCCCUUGGCAGCUGACACGGCACGUGCUAGGUUAGAUGG [whbob_Ex_Theo_A_th73]	0.115
AGUGAUAUAUGAGGAUAUGGGAUAGUUAAUGAGUUAGUUUUAGUGUUGUUUGGUUAGUGAUGUUAUUUAGAAGGCGUGAGUGAUG [tptymullin]	0.0744
UGACAUUGCUCAGAUACCAGACUUGAGGAUCACCCAGGUGCCAAACGUACAAUAAUAAAAGUCCCUUGGCAGCUGAGCAAUGUCU [TheoBX 14]	0.0553
UAUAUAGUGACGGCCGCCACUAUAUUAAUGUUUUUGUUAGAGUGAUGUUUUGUUUUAUAUUUUUAUAGGACCGGGUUAUAUGUUA [klppxmullin]	0.404
GAUGGCAUGCGAGGAUAUUGUACGGAGUGAUGUUCCCAUUAUCCAGGUAUUCGAUUGACGAGUAUCCAAGAAGGCGCAUGCCAUC	0.138
AAAGUUGAAAGUGAUACCAGACGAGUGAAGGGAAGAAAUUAAUUUGGAGUGAUGUUCCGCGUCCCUUGGCAGCACUUUGUAAUUU [Exclusion Theophylline B GF 23]	0.107
ACGAAGGAUGGAAGGAGCGCUCGUCAGUCCUGCGAGUGAUGUUCGUGGGUAAAUAGUCGCGAGCAGGUAGGUCGCCAUCUUGAGC [Isarteza]	0.108
AUAUAGUGAUGUUAUAUAAUAAUCUCUGAUACCAGUCAUUUAGAAGACCCUUGGCAGCAGCUAUAUAUAGGGAAACAAUACAUAA [AstrosExytheA#1]	0.491
GCUAUGGUUGGAAGGAGCGUUGGGUUACUAAUAAGAGUGAUGUUCGAUAGUAGGUAAUUGUAGCAGGUAGGUCGCCAACUAUAGC [KL-Arg B26]	0.211
UGAUACCAGACGGCCGCCACUGCACCAGUCAAUGACUGAGUGUAGUAUUGCUCAGUGAUGUUGAGUAGGACCGGGUCUGGUAUCU [Mod of Eli's TrypBX 8]	0.115
CAUAGGAAACUAUGUAUCUCUCUUACUGAAGGAGCGCGUGAAAACGCAGGUAGGUCGCAGAAUUUAAUAGAGAGUGAUGUUCUCA [Ex Arginine A K4 6]	0.473
UGCGUCGGUUCAGAUACCAGCCAAUUAGAGUCGAGUGAUGUUCGACAUUGAACGUCCAAAGGCCCUUGGCAGCUGGAUUGAGGAU [Same State Theophylline B GF 21]	0.0873
UUAAGGGUCCGAGGAUAUCUCCCAGUGAUGUUGGGCGAUACGGCCCUUAAGACGAAUGGUUGAAGGAGAGAAGGCGGCUCCCGAU [Onatbi]	0.11

From the supplement of paper PMC9170038
